Source: patent US7799901B2, “Modulators of the function of FAS receptors and other proteins” (Yeda Research and Development Co. Ltd., priority 1995, dated 2010)

What was measured:
[1] = target: T1, GST-Fas-IC fusion protein with a replacement at the lpr^eg mutation site (I225A) (Mus musculus, UniProt P25446, I246A); test: In vitro binding to GST-Fas-IC with I225A replacement; conditions: [35S]-labeled protein from HeLa extracts; SDS-PAGE, autoradiography
T1 construct: GST fusion with Fas-IC containing a Ile to Ala replacement mutation at position 225; made in house; host or cells: E. coli
T1 sequence (P25446 187-327 I246A): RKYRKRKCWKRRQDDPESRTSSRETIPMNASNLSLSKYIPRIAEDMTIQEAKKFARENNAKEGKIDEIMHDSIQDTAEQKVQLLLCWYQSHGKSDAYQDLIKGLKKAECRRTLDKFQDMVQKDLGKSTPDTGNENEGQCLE
Experimental: Glutathione S-transferase (GST) fusions with the wild type or a mutated Fas-IC were produced and adsorbed to glutathione-agarose beads; see Boldin et al, 1995; Ausubel et al, 1994; Frangioni and Neel, 1993). Binding of metabolically-labeled FLAG-MORT-1 fusion protein to GST-Fas-IC was assessed by incubating the beads for 2 h at 4° C. with extracts of HeLa cells, metabolically labeled with [^35S]methionine (60 μCi/ml), that express FLAG-MORT-1. The extracts were prepared in a buffer containing 50 mM Tris-HCl, pH 7.5, 150 mM NaCl, 0.1% NP-40; 1 mM dithioteitol, 1 mM EDTA, 1 mM phenylmethylsulfonyl fluoride, 20 μg/ml Aprotonin, […] Leupeptin, 10 mM-sodium fluoride and 0.1 mM sodium vanadate (1 ml per 5×10^5 cells).
Expression of MORT-1 molecules fused at their N terminus with the. FLAG octapeptide (FLAG-MORT-1) yielded in HeLa cells proteins of four distinct sizes—about […], 28, 32, and 34 kD. […] Thus, the in vitro interaction was evaluated by assessing, by autoradiography following SDS-PAGE, the binding of [35] metabolically labeled MORT-1, produced in transfected HeLa cells as a fusion with the FLAG octapeptide (FLAG-MORT-1), to GST, GST fusion with the human or mouse Fas-IC (GST-huFas-IC, GST-mFas-IC) or to GST fusion with Fas-IC containing a Ile to Ala replacement mutation at position 225.

[2] = target: T2, FAS-R (Homo sapiens, UniProt P25445); test: Two-hybrid β-galactosidase filter assay (FIG. 5), binding to FAS-R; conditions: two hybrid test
T2 construct: the FAS-IC extends-from amino acid residues 175-319 of the intact FAS-R; expressed in transfected cells; host or cells: SFY526 yeast
T2 sequence (P25445 191-335): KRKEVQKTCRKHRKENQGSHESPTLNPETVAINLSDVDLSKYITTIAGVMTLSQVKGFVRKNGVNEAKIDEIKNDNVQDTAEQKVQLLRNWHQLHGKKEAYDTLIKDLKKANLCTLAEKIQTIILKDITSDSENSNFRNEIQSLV
Experimental: The yeast two-hybrid test was further applied to evaluate the specificity of binding of MACH to MORT-1, in particular, to define the region in MORT-1 to which MACH binds, as well as to determine which of the MACH ORFs interacts with MORT-1, the procedures being as set forth herein above in Examples 1 and 2. Briefly, various MORT-1 and MACH constructs were prepared for testing the interaction of the proteins encoded by the Gal4 DNA-binding domain and activation domain constructs within transfected SFY526 yeast cells as assessed by the β-galactosidase expression filter assay. The DNA-binding domain constructs were prepared in pGBT9 vectors and the activation domain constructs were prepared in pGAD-GM vectors. […] In the assay, the development of color was determined, where the greater the color development, the greater the interaction between the constructs encoded by the DNA-binding domain and activation domain; Color development was depicted by symbols, where “+++” and “+” indicate the development of a strong color within 30 and 90 min. of the assay, respectively, and “−−−” indicates the lack of development of color within 24 hrs. of the assay. […]
In FIG. 5, there is shown the results of the interaction of MORT-1 and MACH within transfected yeast cells. […] Their interaction was assessed by a β-galactosidase expression filter assay as described in Boldin et al (1995b). […]

| Molecule | in vitro binding to GST-Fas-IC (I225A) [1] | binding to FAS-R in transfected yeast [2] |
| --- | --- | --- |
| MORT-1: Mediator of Receptor-induced Toxicity; protein binding the intracellular domain of FAS-R, SEQ ID NO:2 (protein) VNQAPECRFGGGILGPLGKRRDLARASEPRTEGARRAGPQPRPLADPAMDPFLVLLHSVSSSLSSSELTELKFLCLGRVVKRKLERVQSGLDLFSMLLEQNDLEPGHTELLRELLASLRRHDLLRRVDDFEAGAAAGAAPGEEDLCAAFNVICDNVGKDWRRLARQLKVSDTKIDSIEDRYPRNLTERVRESLRIWKNTEKENATVAHLVGALRSCQMNLVADLVQEVQQARDLQNRSGAMSPMSWNSDASTSEAS | did not bind | – |
| MACHβ1: MACH isoform, cDNA SEQ ID NO: 4, amino acid SEQ ID NO: 5; lacks the CED3/ICE homology region (protein) MDFSRNLYDIGEQLDSEDLASLKFLSLDYIPQRKQEPIKDALMLFQRLQEKRMLEESNLSFLKELLFRINRLDLLITYLNTRKEEMERELQTPGRAQISAYRVMLYQISEEVSRSELRSFKFLLQEEISKCKLDDDMNLLDIFIEMEKRVILGEGKLDILKRVCAQINKSLLKIINDYEEFSKERSSSLEGSPDEFSNDFGQSLPNEKQTSGILSDHQQSQFCKSTGESAQTSQH | – | unable to bind |
